Series [1] addresses recombinant factor X (rFX), expressed in CHO cells from human factor X cDNA (human) (UniProt P00742). As to the kind of experiment: cell-based or functional assay.
Series [2] addresses T1, recombinant FX deletion mutant having the furin cleavage site Arg-Val-Thr-Arg/Ile (rFXΔ^RVTR/I).
T1 chain: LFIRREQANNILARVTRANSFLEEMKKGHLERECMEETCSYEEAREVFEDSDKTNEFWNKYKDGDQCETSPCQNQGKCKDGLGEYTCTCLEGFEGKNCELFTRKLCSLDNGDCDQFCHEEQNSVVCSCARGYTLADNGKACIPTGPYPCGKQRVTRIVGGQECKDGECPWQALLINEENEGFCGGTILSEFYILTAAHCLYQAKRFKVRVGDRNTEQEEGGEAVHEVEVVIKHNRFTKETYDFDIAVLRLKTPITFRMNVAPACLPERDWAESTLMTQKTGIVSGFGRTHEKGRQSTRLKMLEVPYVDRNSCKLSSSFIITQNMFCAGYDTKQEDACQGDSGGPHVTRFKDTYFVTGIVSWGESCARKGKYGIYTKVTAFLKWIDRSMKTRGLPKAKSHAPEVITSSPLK

As to “rfurin ÿTM6xHis (r-furin derivative, as CHO cell culture supernatant; patent application EP 0 775 750) (from UniProt P09958 108-707) (enzyme)”, in series [1], the functional portion of rFX (%), incubation 0 days was determined as 61%; the functional portion of rFX (%), incubation 1 day was found to be 73%; the functional portion of rFX (%), incubation 2 days was found to be 79%; the functional portion of rFX (%), incubation 3 days came to 81%. Besides, the functional portion of rFX (%), incubation 4 days in series [1] is 86%.

B1: r-furinÿCys-spacer-10xHis (purified r-furin derivative; patent application EP-0 775 750-A2) (protein)
chain: DVYQEPTDPKFPQQWYLSGVTQRDLNVKAAWAQGYTGHGIVVSILDDGIEKNHPDLAGNYDPGASFDVNDQDPDPQPRYTQMNDNRHGTRCAGEVAAVANNGVCGVGVAYNARIGGVRMLDGEVTDAVEARSLGLNPNHIHIYSASWGPEDDGKTVDGPARLAEEAFFRGVSQGRGGLGSIFVWASGNGGREHDSCNCDGYTNSIYTLSISSATQFGNVPWYSEACSSTLATTYSSGNQNEKQIVTTDLRQKCTESHTGTSASAPLAAGIIALTLEANKNLTWRDMQHLVVQTSKPAHLNANDWATNGVGRKVSHSYGYGLLDAGAMVALAQNWTTVAPQRKCIIDILTEPKDIGKRLEVRKTVTACLGEPNHITRLEHAQARLTLSYNRRGDLAIHLVSPMGTRSTLLAARPHDYSADGFNDWAFMTTHSWDEDPSGEWVLEIENTSEANNYGTLTKFTLVLYGTAPEG
B1: in series [2], the “processing/activation of rFXΔ^RVTR/I (Western blot; 6, 24, 48, 72 hours at 37° C.)” value is listed as “In the presence of the r-furin derivative (FIG. 10A), a 35 kD protein band appears already after 6 hours of incubation (lane 5), which corresponds to the form of the FX heavy chain”.

Source of the values: patent US6905846.
